Experimental data published in PMC2156157 (The Journal of Cell Biology, 1999).
Ends that are not written are not given here. * marks the point of attachment. Biotin = O=C1N[C@H]2[C@H](CS[C@H]2CCCCC(=O)*)N1

Biological target: T1, GST-EBP50 (ERM-binding phosphoprotein 50 kD) (human, UniProt O14745 1-358)
T1 sequence (looked up): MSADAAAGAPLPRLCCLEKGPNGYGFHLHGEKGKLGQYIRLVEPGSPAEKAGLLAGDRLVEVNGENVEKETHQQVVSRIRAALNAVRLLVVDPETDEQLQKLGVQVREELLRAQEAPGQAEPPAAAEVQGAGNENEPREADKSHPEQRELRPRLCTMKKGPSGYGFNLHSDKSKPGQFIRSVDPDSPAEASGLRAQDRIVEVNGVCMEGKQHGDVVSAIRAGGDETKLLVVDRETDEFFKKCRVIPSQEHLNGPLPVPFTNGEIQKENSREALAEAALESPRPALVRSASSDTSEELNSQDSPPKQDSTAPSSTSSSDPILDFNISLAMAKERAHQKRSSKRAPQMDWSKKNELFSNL
Experiment: pull-down

binding result: binds
Binder: Biotin-SGSGTEEEVQDTRL [CFTRwt peptide (COOH-terminal 10 amino acids of human CFTR)]
